# B1: TPR t1 (parent)
# chain: GACCAAUCUGCCCUCAGAGCUCGAGAACAUCUUCGGAUGCAGAGGAGGCAGGCUUCGGUGGCGCGAUAGCGCCAACGUCCUCAACCUCCAAUGCAUCCCACCACAUGAUGAUGCCUGAAGAGCCUUGGUUUUUUG
# Variants of: B1
# Assay: polymerase ribozyme fitness, log enrichment relative to wild type (log ratio); higher = more active; in vitro selection for triplet polymerase activity
# Outline: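 Fitness compares each genotype's enrichment to that of the wild type on a logarithmic scale, averaging replicates with inverse-variance weights. The logarithm is base 2. Enrichment came from Illumina sequencing of input and output libraries after one triplicate round of in vitro selection, which included frozen incubation at −7 °C, of PCR-built, transcribed mutant libraries of each subunit of a heterodimeric triplet polymerase ribozyme. Only genotypes with ≥10 input reads and ≥1 read per output were kept.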
row,Variant,polymerase ribozyme fitness (log ratio)
1,C85U G113C C114A,-5.96
2,U81G A84C G113A,-3.43
3,A83G G110A,-1.35
4,U78A C123A,0.278
5,C88A C101U,-0.505
6,G77U C82U,-0.811
7,C80U G120U,-0.245
8,C80U G120C,0.704
9,U78G A95G U125G,-1.07
10,A83G A84G C99U,-5.16
11,U78G G120A,0.634
12,U81G U131A,-3.6
13,C79U C102U G117A,-3.4
14,U78C A83C C102U,-1.78
15,U78C C82A C85U G93A,-1.53
16,U78C U96G,-0.935
17,U87G C94A G120U,-0.366
18,G77A C98U U126C U130C,-1.62
19,G77C U92C G122A,-2.81
20,C85U C98U,-1.57
21,U78C G117U G128C G135C,-6.04

row,Variant,polymerase ribozyme fitness (log ratio)
1,A83C C85A C115A G117A,-6.05
2,C79U C114A,-0.742
3,C86A U112A,0.808
4,C82G G113A,-1.04
5,C82A G120U,0.156
6,U87C U126G,-1.22
7,U78C C88U C123G U125A,1.82
8,U87C C89G,-1.1
9,C82G A90U,-2.11
10,C82A U125A,-0.778
11,U78C A95G,-1.08
12,C79A C124A,0.574
13,G77C C89U G128C,-3.81
14,C86G U112A G117U G120A U126A,-5.82
15,U78A G117A G128C,-5.04
16,C82U G127U,-0.724
17,U87C C99A C101U U116C,-6.81
18,U78A A95C G113U U125G,-4.39
19,C88A C94A G117C,-5.02
20,G77U C82U G107A U112C,-5.86
21,G77C G110U,-1.93

row,Variant,polymerase ribozyme fitness (log ratio)
1,C80A G117A,-4.27
2,C86U C124A,1.32
3,C86U G110A A111C,-4.3
4,U78C A111G C124A,1.04
5,C80A U96C,-3.2
6,U81A G113C U130G U132A,-3.31
7,C80U G120C G127C,-0.289
8,U78C C97A,-4.81
9,U87G U109A,-3.08
10,U78C A111U,-2.5
11,U78C C80U,-0.608
12,A84G U106G,-3.32
13,C82U U96G G127U,-1.83
14,A84C C98U,-1.5
15,C86A U96C,-0.678
16,U81G C88A,-2.78
17,A84G C86A U96C G113A,-2.94
18,U78A A95G,-0.764
19,C86G C88U A105G,-4.95
20,U81A A121C,0.745
21,U81C G93A C123A,-0.322

row,Variant,polymerase ribozyme fitness (log ratio)
1,C82G C101U C115A U125A,-1.73
2,C82U A95G,0.358
3,A83U C101G,-1.74
4,C82A C94A C104A,-3.13
5,G77A U81A G128A,-2.44
6,C86U G93A C101G G122A,-3.73
7,C79G C94G G113A,-5.05
8,C86A A95G,-0.915
9,C85A A95C,-2.61
10,U87A C123A,0.223
11,C82A G93A,-0.17
12,C82U U112A U130G,0.499
13,C86U G110U,-1.02
14,U87A C102U C104A,-1.05
15,C79G C89A G127U,-4.91
16,G77A G93A C124A,1.34
17,C80U C115G,-0.729
18,C88A U96C,-0.897
19,A83C C97A,-3.66
20,C80G C124A,-5.18

# From the RNAGym collection of RNA variant scans (doi:10.1073/pnas.2313332121)
